Data from US20230355711A1.

Biological target: recombinant SARS-CoV-2 spike protein (S1S2ECD-His; Sino Biological) (SARS-CoV-2) (UniProt P0DTC2)

Question: How did the Kd turn out when “heat-inactivated recombinant human rod domain of vimentin (ΔrhRod) (from UniProt P08670 96-407)” was run?
Answer: The Kd was 1.1 µM.
